Measurements published in a protein production outcome set (Wang et al. 2014).

Assay: label from the status in PepcDB records

Protein production, failed:
QVSDEDVMLMIRQGAKKGVFESVEYEMISRIFRMSDKRASALMTPRNEIEWLDLERPDEELVARIKASGRSRFPVAKGSLDELQGVVRSLDLVNFSLSSKGSIREAIRASMKPPLFVPESVPAFHVLELFKKNRAHMALVIDEHGSVQGAITLTDVLESIVGDVPADDMEGD, QYRLRQLPEVSGAMVVMDPLTGRVLAMVGGFSFDQSQFNRATQAYRQPGSSFKPLVYSAAMDNGYTPSTVVIDAPIEIDQGQGVGVWRPENYSTGKYYGPTTLRNALQRSLNTVTVRLAQDIGMPLIGEYAKRFGVYDDLPNYLSYALGAGETTVMRMVTAYSMFANGGRRVKATLIDRIQDRYGHTIFKHDQRECRGCEAPNGWKNQPEPQLVDRREQVLDPMTAYQITSMMEGVVQAGTATVLREVGKPIAGKTGTTNDEKDAWFIGFSPDLVCGVYIGYDKPRNLGRGATGGHLAAPIAKDFFKLALAEKPAVPF, RAAAALAAGALALSLTACGGDEDNGGGDGGDEGGGAKQPASSVTLPKLDGESLEVAAVWTGTEQENFKKVLAEFEKRTGAKVTFVPAQDPIINFLGSKIAGGAPPDVAMLPQPGAIKQAVDKGWAKPLGAEATKELGENYSQGWQDIGKVGGKQYGVYYKAANKSLIWYNAQVFENAGAAEPKTWDELLNAAQMVYDSGVTPFSVGGADGWTLTDWFENVYLSQAGPEKYDQLAKHEIKWTDPSVKDALTTLAEIWGKKDFVAGGASGALQTEFPASVTQTFTGGDQPKAGMVYEGDFVQVNIGETKAKVGTDAKVFPFPAVGDTAPVVSGGDAAVVFKDSKAAQALATWLASPDAAGIQAKLGGFLSPNKSIDSSVYPNEVQKKIAEALVAAGDDFRFDMSDQAPQAFGGTPGKGEWKTLQDFLKNPKDVAGAQAKLEADAAAAYG, RATPSGMLRINASVQAGRAVAPLVLAFLRRYPEMRVDLVTEGRLLDIVAEGFDMGIRPADLVPRDMIALPLGLPVRHAVVASPDWLVRHPEPRSPADLDPDACLRVRLPNGALLRWPFQKDGVPLPFEASGRLTVDEAAIAR, RDEVAGILRLGLSQSFGTMHIIPAIDKLRNQYPDLQVEVRLFDHQADMLKDGLDLWVTNFEDLPEGYVAQRLADSNFVLAASPDYLIDKKVPHHPLDLVEHNCLTYQ, REVPRCLADLGNGSVHGYRAGRVLSDSGPTGRVGEELMRSFASFFVRTASVPVAELPARPEGWPRDGDTQGFLDWLVHFTERRVHRPNRDRFGALFDAVGVPEDAMARFAAGHRCRAVRPFRLLHTDVHRANVVVRGRRLAVIDWELAILGDPLHDLATHLVRMAYGKEEQGRMVDLWAEAMADAGFTDLTAGLHEDLPVYVAFEYAQSVFPDVMRAAIDLPQ, RFHNDGEALLAAFLAGDLAGIGAMTPEPAALEPARRLRRFYVRPDMRRRGVATALASALIHEGFDSVRLLTVNARAADAAAPFWEAQGFEPDTIGPWTH, RHDFSDQTAMLELFSQLFGPYPFDQYSVVVTEDDLEIPLEAQGLSIFGANHAGGTKQWERLIAHELAHQWFGNSLGLAQWDDIWLNEGFACYAE, RRLNDELLGKVVSVVSATERTEWYPALVISPSCNDDITVKKDQCLVRSFIDSKFYSIARKDIKEVDILNLPESELSTKPGLQKASIFLKTRVVPDNWKM, RSRTKLLLLTVIPLIVITALVMAVNYQSGLSTLQKELENYRTDLIDAKKKELQAYLMMGVTAVKPLYESDKAGENQAQAKQILKAMRFDSDGYFFAYDSQGVNTLHAIKPELEGKNLYGMKD, RSSYVLPDKFVLSVPIQGNLDEVHSLSSSLPLLSSAEPLSFQDLLFLFDHAAGDKRIGSILLEIGGVHANPAKLTELRYSIEKMKASGKKVVAFLRSAEDSDYLLATACDSIVVEEGGFLMLDGLKAETLFYTKSLNKIGITFQASQWKTYKSGIEPFVRTGASSEYLEQIGELLDDVYDDYLGYASKRRGISRDSLQAVIDNMALLSAKKAVQLGLADGIASSWA, SAAKALKDLKNLPVSERNIDYKTKLLVGKMNGTAEDKPPQNSVPFDHNHPKGDEIEKPEAERVIVEIEYIESKDLNNVTQVDAVLKSLVTELDSKDWVLVCDALNTIRRLSIFHKEEMLHMLEKVILFIVKSLKNPRSAVSKTACMTSADIFSSYNDHTIDQLDLLLTQLLLKSSQDKRFVCEAAEKALVAMTAHVSPALLLPKLQPFLKNRNPRIRAKASTCFSRCVPRLGIEGIREYGIEKLVQAASSQLSDQLPESREAARAVLLELQTVYKKTTNVEPKEEHPEPVTWQIFCQSNLSPLSAQAVIRVTNVAGVAREGLVAGS, SAESWLRLSGAGPAEEAGPEGGLEEPDALDDSLTSLQWLQEFSILNAKAPALPPGGTDPHGYHQVPGSAAPGSPLAADPACLGQPHTPGKPTSSCTSRSAPPGLQAPPPDDVDYATNPHVKPPYSYATLICMAMQASKATKITLSAIYKWITDNFCYFRHADPTWQNSIRHNLSLNKCFIKVPREKDEPGKGGFWRIDPQYAERLLSGAFKKRRLPPVHIHPAFARQAAQEPSAVPRAGPLTVNTEAQQLLREFEEATGEAGWGAGEGRLGHKRKQPLPKRVAKVPRPPSTLLPTPEEQGELEPLKGNFDWEAIFDAGTLGGELGALEALELSPPLSPASHVDVDLTIHGRHIDCPATWGPSVEQAADSLDFDETFLATSFLQHPWDESGSGCLPPEPLFEAGDATLASDLQDWASVGAFL, SAKTDKLAQFLDSGIYESDEFNWFFLDTVRITNRSYTRFKVSPSAYYSRFFNSKQLNQHSSESNPKKRKRKQKNSSFHLPSVGEQASNLRHQEARLFLSKAHESFLKEIELLSLTKGLSDDNDDDDSSLLNKCCDDEVSFIELGGVWQAPFYEITLSFNLHCDNEGESCNEQRVFQVFNNLVVNEIGEEVEAEFSNRRYIMPRNSCFYMSDLHHIRNLVPEKISHYHIGRRCNSLIDVIYAAKSEEGYNLIVIDPPWENASAHQKSKYPTLPNQYFLSLPIKQLAHAEGALVALWVTNREKLLSFVEKELFPAWGIKYVATMYWLKVKPDGTLICDLDLVHHKPYEYLLLGYHFTELAGSEKRSDFKLLDKNQIIMSIPGDFSRKPPIGDILLKHTPGSQPARCLELFAREMAAGWTSWGNEPLHFQDSRYFLKV, SALIAALSVSGLPSNRFTFEGFLPAKPTARRDRLTHLAHEPRTLIFYEASHRIAECLTDLATIFGSMRIAVVARELTKIFETVLDGTLATLQTQVANDENQRKGEFVIIVQGAADQ, SALTAALSVCPLPSSSFFFAGFLPHKKGRKSRLEFLASIDSTIVLYESPHRIGRLMEEVKEHFPDAQVFAAREITKMHEEYVTGTPDELANHFTGQKQRGEFVVVVHPPDKH, SASLPIRHLTPRDLTACADLSEDRGWPREEHKWGLLLAAGKGYGIDDPEGGLVSACVVTEYGPQDRPDLGAIGMVLVAERHARQGIGRRLMRHVMAEMATTPLTLCATPFGRPLYEELGFKVVGHSEMVRGYFAP, SASYLILRNYRNSIEGLIEKGIRDEEFIPYYQPIVDSRTQEVVGYEVLLRWQKGHQLVPPSLFISAAEDSGLVVKITNQLIQQVHRDLAQIPAPRWVSINVVADHLEQHHLTHLLEELHWPYSERLKFELTERVPIKAMTQAQEEVFYLLKKGYQFKIDDFGTGYGGFAYLQNLQISSIKIDKMFVDTINTHDVKISVLDSIIASAQGGNIEVIAEGVEHQYQVDYLAERNVFWIQGYFYAKP

Protein production, not failed:
RAKAFIDAANQYSINELYLISHALLETGNGTSALANGLTYNGKTVYNMYGIGAYDSNPNYYGAKYAYEQGWFTPEAAIIGGAKFIGSSYIHNTAYNQDTLYKMRWSATATHQYATDIGWAYKQVNRMYSLYSLLDG, RHQVESSPLFRALALRCNQTMVTLRSANMFHAYGFLAKVFEILAKHKISVDLITTSEISVSLTLDQTDTSGGAPQLPQAAREELEELCKVEVEHDLCLVALIGNKMSERKGYAKQVFGTLEDLNLRMICYGASPHNLCFLVNESVAKQAIQKLHTELFEQ, RIGIVVAAHGNSTASSMVQVVSQLLNVDNLKAVDMPLDMPPKEALRKIVEAVGEVNEENGVLLLVDMGSLSTFSEEIVRQTGIDVRTVDMVTTPIVLEAARKTALIDTQLETLHESLKNFHGYADIRQSETKQ, RPFMQKRAQKALPHVSTGADALVGRKVLVTETIDPTTDKGRVAVDGDVWTARSLTGEVIEKGMRVEIVSYESIVLNVVVLGNDKQ, RTEVVAVALDTSLEELKGRFVESGISKIIVYDGNIDNVVGYIHSSEMFRSPKDWRNHVKEVPIVPETMAAHKLMKLFMQQKKTIAVVVDEFGGTSGIVSLEDLVEEIFGDIEDEHDNTSYICKQIGE, RTRHLFEMTRELSRALTLEEVVRTSYHFLSSAFDAKVCLLMPNHHGELTPYNAEGMGQLPIDSGIARWCWDKDQIAGAGTDTLPSVPYQLHPISASQQVLAILAIEPNNLRQVLIPEQQQLLQTFNGLIANALERLQQAEMAEQSRINIEREQ, SAALAGVFVWDEERIQEEELQRSINEMKRLEEMSNMFQSSGVQHHPPEPKAQTEGNEDSEGKEQRWEMVMDKKHFKLWRRPITGTHLYQYRVFGTYTDVTPRQFFNVQLDTEYRKKWDALVIKLEVIERDVVSGSEVLHWVTHFPYPMYSRDYVYVRRYSVDQENNMMVLVSRAVEHPSVPESPEFVRVRSYESQMVIRPHKSFDENGFDYLLTYSDNPQTVFPRYCVSWMVSSGMPDFLEKLHMATLKAKNMEIKVKDYISAKPLEMSSEAKATSQSSERKNEGSCGPARIEYA, SALTLLEDWCKGMDMDPRKALLIVGIPMECSEVEIQDTVKAGLQPLCAYRVLGRMFRREDNAKAVFIELADTVNYTTLPSHIPGKGGSWEVVVKPRNPDDEFLSRLNYFLKDEGRSMTDVARALGCCSLPAESLDAEVMPQVRSPPLEPPKESMWYRKLKVFSGTASPSPGEETFEDWLEQVTEIMPIWQVSEVEKRRRLLESLRGPALSIMRVLQANNDSITVEQCLDALKQIFGDKEDFGASQFRFLQTSPKIGEKVSTFLLRLEPLLQKAVHKSPLSVRSTDMIRLKHLLARVAMTPALRGKLELLDQRGCPPNFLELMKLIRDEEEWENTEAVMKNKEKPSGRGRGASGRQARAEASVSAPQATVQARSFSDSSPQTIQGGLPPLVKRRRLLGSESTRGEDHGQATYPKAENQTPGREGPQAAGEELGNEAGAGAMSHPKPWET, SANSGCKDVTGPDEESFLYFAYGSNLLTERIHLRNPSAAFFCVARLQDFKLDFGNSQGKTSQTWHGGIATIFQSPGDEVWGVVWKMNKSNLNSLDEQEGVKSGMYVVIEVKVATQEGKEITCRSYLMTNYESAPPSPQYKKIICMGAKENGLPLEYQEKLKAIEPNDYTGKVSEEIEDIIKKGETQTL, SAQEKMELDLELPPGTGGSPAEGGGSGGGGGLRRSNSAPLIHGLSDTSPVFQAEAPSARRNSTTFPSRHGLLLPASPVRMHSSRLHQIKQEEGMDLINRETVHEREVQTAMQISHSWEESFSLSDNDVEKSASPKRIDFIPVSPAPSPTRGIGKQCFSPSLQSFVSSNGLPPSPIPSPTTRFTTRRSQSPINCIRPSVLGPLKRKCEMETEYQPKRFFQGITNMLSSDVAQLSDPGVCVSSDTLDGNSSSAGSSCNSPAKVSTTTDSPVSPAQAASPFIPLDELSSK, SCNETGMLERLPLCGKAFADMMGKVDVWKWCNLSEFIVYYESFTNCTEMEANVVGCYWPNPLAQGFITGIHRQFFSNCTVDRVHLEDPPDEVLIPLIVIPVVLTVAMAGLVVWRSKRTDTLL
